Assay results from patent US20170275357A1.
Read-outs that look alike come from different tables or passages of the source.

Legend:
[1] = target: wild-type IL-23 (His-tagged p19 / non-tagged p40) (human) (UniProt P29460); test: cell-based or functional assay
[2] = target: IL-23 alanine shave mutant M5 (human) (UniProt P29460); test: cell-based or functional assay
[3] = target: IL-23 alanine shave mutant M7 (human) (UniProt P29460); test: cell-based or functional assay
[4] = target: IL-23 alanine shave mutant M9 (human) (UniProt P29460); test: cell-based or functional assay
[5] = target: IL-23 alanine shave mutant M10 (human) (UniProt P29460); test: cell-based or functional assay
IL-23 D55A (human) [6] = target: IL-23 D55A (human) (UniProt P29460); test: SPR Biacore, antibody captured on protein A, single alanine mutants of IL-23
IL-23 M54A (human) [7] = target: IL-23 M54A (human) (UniProt P29460); test: as above
IL-23 D118A (human) [8] = target: IL-23 D118A (human) (UniProt P29460); test: as above
IL-23 H53A (human) [9] = target: IL-23 H53A (human) (UniProt P29460); test: as above
IL-23 L116A (human) [10] = target: IL-23 L116A (human) (UniProt P29460); test: as above
IL-23 E112A (human) [11] = target: IL-23 E112A (human) (UniProt P29460); test: as above
IL-23 D55A (human) [12] = target: IL-23 D55A (human) (UniProt P29460); test: cell-based or functional assay
IL-23 M54A (human) [13] = target: IL-23 M54A (human) (UniProt P29460); test: cell-based or functional assay
IL-23 D118A (human) [14] = target: IL-23 D118A (human) (UniProt P29460); test: cell-based or functional assay
IL-23 H53A (human) [15] = target: IL-23 H53A (human) (UniProt P29460); test: cell-based or functional assay
IL-23 L116A (human) [16] = target: IL-23 L116A (human) (UniProt P29460); test: cell-based or functional assay
[17] = target: wild-type IL-23 (His-tagged p19 / non-tagged p40) (human) (UniProt P29460); test: cell-based or functional assay; remark: listed apart in the source
IL-23 E112A (human) [18] = target: IL-23 E112A (human) (UniProt P29460); test: cell-based or functional assay
[19] = target: IL-23 alanine shave mutant M5 (human) (UniProt P29460); test: SPR Biacore T100, antibody captured on protein A, purified IL-23 variant, 1:1 Langmuir
[20] = target: IL-23 alanine shave mutant M7 (human) (UniProt P29460); test: as above
[21] = target: IL-23 alanine shave mutant M9 (human) (UniProt P29460); test: as above
[22] = target: IL-23 alanine shave mutant M10 (human) (UniProt P29460); test: as above

IC50, IL-23 variant-induced pSTAT3 in BaF3/huIL-23Ra/huIL-12Rb1 transfectants [1]	IC50, IL-23 variant-induced pSTAT3 in BaF3/huIL-23Ra/huIL-12Rb1 transfectants [3]	IC50, IL-23 variant-induced pSTAT3 in BaF3/huIL-23Ra/huIL-12Rb1 transfectants [4]	IC50, IL-23 variant-induced pSTAT3 in BaF3/huIL-23Ra/huIL-12Rb1 transfectants [5]	ΔΔG (IL-23 D55A (human) [6])	ΔΔG (IL-23 M54A (human) [7])	ΔΔG (IL-23 D118A (human) [8])	ΔΔG (IL-23 H53A (human) [9])	ΔΔG (IL-23 L116A (human) [10])	ΔΔG (IL-23 E112A (human) [11])	IC50, IL-23 variant-induced pSTAT3 in BaF3/huIL-23Ra/huIL-12Rb1 transfectants (IL-23 D55A (human) [12])	IC50, IL-23 variant-induced pSTAT3 in BaF3/huIL-23Ra/huIL-12Rb1 transfectants (IL-23 M54A (human) [13])	IC50, IL-23 variant-induced pSTAT3 in BaF3/huIL-23Ra/huIL-12Rb1 transfectants (IL-23 D118A (human) [14])	IC50, IL-23 variant-induced pSTAT3 in BaF3/huIL-23Ra/huIL-12Rb1 transfectants (IL-23 H53A (human) [15])	IC50, IL-23 variant-induced pSTAT3 in BaF3/huIL-23Ra/huIL-12Rb1 transfectants (IL-23 L116A (human) [16])	IC50, IL-23 variant-induced pSTAT3 in BaF3/huIL-23Ra/huIL-12Rb1 transfectants [17]	IC50, IL-23 variant-induced pSTAT3 in BaF3/huIL-23Ra/huIL-12Rb1 transfectants (IL-23 E112A (human) [18])	ΔΔG [19]	ΔΔG [20]	ΔΔG [21]	Substance	further results
79 pM	59 pM	67 pM	71 pM	2.09 kJ/mol	1.26 kJ/mol	-1.26 kJ/mol	1.26 kJ/mol	2.09 kJ/mol	1.26 kJ/mol	77 pM	81 pM	52 pM	78 pM	54 pM	67 pM	33 pM	0.418 kJ/mol	0.418 kJ/mol	0.418 kJ/mol	STELARA (ustekinumab, IL-12/IL-23 p40 mAb) (antibody)	IC50, IL-23 variant-induced pSTAT3 in BaF3/huIL-23Ra/huIL-12Rb1 transfectants [2]: 62 pM; ΔΔG [22]: 1.26 kJ/mol
380 pM	310 pM	260 pM	350 pM	2.93 kJ/mol	4.18 kJ/mol	-1.26 kJ/mol	0 kJ/mol	0.837 kJ/mol	7.11 kJ/mol	0.18 nM	0.27 nM	0.22 nM	0.19 nM	0.24 nM	0.18 nM	> 3 nM	7.95 kJ/mol	0.837 kJ/mol	0.837 kJ/mol	Merck's IL-23 p19 mAb (7G10) (antibody)	ΔΔG [22]: 1.67 kJ/mol
